Measured values: patent US20200199231A1 (Genmab, published 2020)

T1: CD20-AxP (human, UniProt P11836 1-297)
T1 construct: whole, on cells; Transiently expressed in HEK293F cells; also called AxP mutant; CD20 mutant (CD20-AxP)
T1 sequence (looked up): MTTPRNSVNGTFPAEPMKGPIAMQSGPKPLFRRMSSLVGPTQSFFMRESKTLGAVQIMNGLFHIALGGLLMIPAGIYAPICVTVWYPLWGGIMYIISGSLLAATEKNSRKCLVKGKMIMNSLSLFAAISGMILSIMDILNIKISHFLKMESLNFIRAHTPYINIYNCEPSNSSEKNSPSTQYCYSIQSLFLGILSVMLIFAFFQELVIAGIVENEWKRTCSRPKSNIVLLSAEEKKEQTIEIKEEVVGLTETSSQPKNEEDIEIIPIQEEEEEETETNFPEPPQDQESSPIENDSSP

T2: human CD20 (human, UniProt P11836 1-297)
T2 construct: whole, on cells; On Daudi and other human B cell lines, on human B cells in blood, or transiently expressed in HEK293F cells (construct pEE12.4CD20HS-GA); also called wild type CD20; WT CD20
T2 sequence (looked up): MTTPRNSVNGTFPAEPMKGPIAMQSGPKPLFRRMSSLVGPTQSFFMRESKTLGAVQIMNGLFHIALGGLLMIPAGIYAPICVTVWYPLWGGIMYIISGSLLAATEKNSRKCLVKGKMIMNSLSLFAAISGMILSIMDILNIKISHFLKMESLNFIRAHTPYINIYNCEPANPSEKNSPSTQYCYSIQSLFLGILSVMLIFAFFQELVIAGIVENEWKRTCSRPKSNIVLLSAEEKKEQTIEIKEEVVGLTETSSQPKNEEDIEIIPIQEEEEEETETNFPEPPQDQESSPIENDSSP

T3: CD20 KDD mutant (human, UniProt P11836 1-297)
T3 construct: whole, on cells; Transiently expressed in HEK293F cells; also called T159K/N163D/N166D
T3 sequence (looked up): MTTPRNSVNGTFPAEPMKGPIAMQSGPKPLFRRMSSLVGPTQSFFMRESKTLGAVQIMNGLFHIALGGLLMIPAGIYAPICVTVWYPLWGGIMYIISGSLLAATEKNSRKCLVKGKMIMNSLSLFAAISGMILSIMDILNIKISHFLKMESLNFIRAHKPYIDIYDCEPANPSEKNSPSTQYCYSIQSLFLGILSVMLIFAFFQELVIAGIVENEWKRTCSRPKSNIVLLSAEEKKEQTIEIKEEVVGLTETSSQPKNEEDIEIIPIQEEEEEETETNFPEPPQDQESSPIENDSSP


Experiments:
CD20-AxP [1] = target: T1, CD20-AxP; assay: flow cytometry on HEK293F cells transiently expressing CD20-AxP (A170S/P172S); PE-conjugated goat anti-human IgG F(ab')2; MFI
Description: (§1) PCR was performed on a Tgradient Thermocycler 96 (Biometra) using a 35 cycle program of: +95° C. for 15 min, followed by 35 cycles of: +94° C. for 30 sec, anneal: 55° C. for 30 sec and extension: +72° C. for 2 min, followed by a final extension step at 72° C. for 10 min and subsequent storage at 4° C. The completed reactions were analyzed by agarose gel electrophoresis. See Table 11 for details of primer pairs used for colony PCR. DNA sequencing: Plasmid DNA samples were send to AGOWA (Berlin, Germany) for sequence analysis. Sequences were analyzed using the VectorNTI software package (Informax, Frederick, Md., USA).
(§2) Mutagenesis: The mutagenesis was performed, using the QuikChange® XL Site-Directed Mutagenesis kit (Cat 200517-5, Lot 1120630, Stratagene Europe) according to the manufacturer's instructions. Mutagenesis reactions were concentrated using ethanol precipitation and transformed into either oneshot DH5α-TIR competent E. coli cells or electroporated into ElectroTen-Blue® Electroporation-Competent Cells. Colonies were checked by colony PCR and restriction digestion prior to transfection. […] Anti-CD20 Antibody binding: HEK293F cells were taken up in staining buffer (PBS supplemented with 0.1% BSA and 0.02% NaN₃) and added to round bottom plates (1-3×10⁵/well in 100 μL). […] After washing twice in staining buffer, cells were incubated in 50 μL secondary antibody at 4° C. for 30 min. As a secondary antibody, R-Phycoerythrin (PE)-conjugated goat-anti-human IgG F(ab′)₂ was used, as described supra. Next, cells were washed once in staining buffer, re-suspended in 150 μL staining buffer and analyzed on a flow cytometer (FACSCanto-720, Becton Dickinson, San Diego, Calif., USA) and 10,000 events per sample were acquired at high flow rate. Binding curves were analyzed using non-linear regression (sigmoidal dose-response with variable slope) using GraphPad Prism V75.04 software (GraphPad Software, San Diego, Calif., USA).

human CD20 = target: T2, human CD20; assay: flow cytometry on HEK293F cells transiently expressing wild type CD20; PE-conjugated goat anti-human IgG F(ab')2; MFI
Description: as §1, §2

CD20-AxP [2] = target: T1, CD20-AxP; assay: flow cytometry, HEK293F transfectants, MFI mutant/MFI wt at 10 µg/mL
Description: (§3) As a secondary antibody, R-Phycoerythrin (PE)-conjugated goat-anti-human IgG F(ab′)₂ was used, as described supra. Next, cells were washed once in staining buffer, re-suspended in 150 μL staining buffer and analyzed on a flow cytometer (FACSCanto-720, Becton Dickinson, San Diego, Calif., USA) and 10,000 events per sample were acquired at high flow rate. Binding curves were analyzed using non-linear regression (sigmoidal dose-response with variable slope) using GraphPad Prism V75.04 software (GraphPad Software, San Diego, Calif., USA).
(§4) Numbers indicate the percentage of binding to the CD20 mutants, relative to binding to wild type CD20, at 10 μg/mL. The percentage of binding was calculated by the following formula: (MFI binding to CD20 mutant)/(MFI binding CD20 wt) × 100%

CD20 KDD mutant [3] = target: T3, CD20 KDD mutant; assay: as above
Description: as §3, §4

CD20 KDD mutant [4] = target: T3, CD20 KDD mutant; assay: flow cytometry, HEK293F cells expressing CD20 KDD mutant
Description: as §1, §2

Binder | EC50 (read off the curve) (CD20-AxP [1]) [µg/mL] | EC50 (read off the curve) (human CD20) [µg/mL] | % of wt CD20 binding (CD20-AxP [2]) [%] | % of wt CD20 binding (CD20 KDD mutant [3]) [%] | binding result (CD20 KDD mutant [4])
bsIgG1-huCD3-H1L1-FEALxCD20-7D8-FEAR (bispecific antibody, Made by 2-MEA-induced Fab-arm exchange; also called CD3xCD20; CD3x7D8) heavy 1: not shown light: not shown heavy 2: EVQLVESGGGLVQPDRSLRLSCAASGFTFHDYAMHWVRQAPGKGLEWVSTISWNSGTIGYADSVKGRFTISRDNAKNSLYLQMNSLRAEDTALYYCAKDIQYGNYYYGMDVWGQGTTVTVSSASTKGPSVFPLAPSSKSTSGGTAALGCLVKDYFPEPVTVSWNSGALTSGVHTFPAVLQSSGLYSLSSVVTVPSSSLGTQTYICNVNHKPSNTKVDKRVEPKSCDKTHTCPPCPAPEFEGGPSVFLFPPKPKDTLMISRTPEVTCVVVAVSHEDPEVKFNWYVDGVEVHNAKTKPREEQYNSTYRVVSVLTVLHQDWLNGKEYKCKVSNKALPAPIEKTISKAKGQPREPQVYTLPPSREEMTKNQVSLTCLVKGFYPSDIAVEWESNGQPENNYKTTPPVLDSDGSFFLYSRLTVDKSRWQQGNVFSCSVMHEALHNHYTQKSLSLSPGK VL: EIVLTQSPATLSLSPGERATLSCRASQSVSSYLAWYQQKPGQAPRLLIYDASNRATGIPARFSGSGSGTDFTLTISSLEPEDFAVYYCQQRSNWPITFGQGTRLEIK | ~0.2 | ~0.1 | 103 | 4 | no binding (tested: 0.0015-10 µg/mL)
bsIgG1-huCD3-H1L1-FEALxCD20-11B8-FEAR (bispecific antibody, also called CD3x11B8; huCD3x11B8) heavy 1: not shown light: not shown heavy 2: EVQLVQSGGGLVHPGGSLRLSCTGSGFTFSYHAMHWVRQAPGKGLEWVSIIGTGGVTYYADSVKGRFTISRDNVKNSLYLQMNSLRAEDMAVYYCARDYYGAGSFYDGLYGMDVWGQGTTVTVSSASTKGPSVFPLAPSSKSTSGGTAALGCLVKDYFPEPVTVSWNSGALTSGVHTFPAVLQSSGLYSLSSVVTVPSSSLGTQTYICNVNHKPSNTKVDKRVEPKSCDKTHTCPPCPAPEFEGGPSVFLFPPKPKDTLMISRTPEVTCVVVAVSHEDPEVKFNWYVDGVEVHNAKTKPREEQYNSTYRVVSVLTVLHQDWLNGKEYKCKVSNKALPAPIEKTISKAKGQPREPQVYTLPPSREEMTKNQVSLTCLVKGFYPSDIAVEWESNGQPENNYKTTPPVLDSDGSFFLYSRLTVDKSRWQQGNVFSCSVMHEALHNHYTQKSLSLSPGK VL: EIVLTQSPATLSLSPGERATLSCRASQSVSSYLAWYQQKPGQAPRLLIYDASNRATGIPARFSGSGSGTDFTLTISSLEPEDFAVYYCQQRSDWPLTFGGGTKVEIK | ~0.2 | ~0.1 | 95 | 67 | –
bsIgG1-huCD3-H1L1-FEALxCD20-2F2-FEAR (bispecific antibody, also called huCD3x2F2) heavy 1: not shown light: not shown heavy 2: EVQLVESGGGLVQPGRSLRLSCAASGFTFNDYAMHWVRQAPGKGLEWVSTISWNSGSIGYADSVKGRFTISRDNAKKSLYLQMNSLRAEDTALYYCAKDIQYGNYYYGMDVWGQGTTVTVSSASTKGPSVFPLAPSSKSTSGGTAALGCLVKDYFPEPVTVSWNSGALTSGVHTFPAVLQSSGLYSLSSVVTVPSSSLGTQTYICNVNHKPSNTKVDKRVEPKSCDKTHTCPPCPAPEFEGGPSVFLFPPKPKDTLMISRTPEVTCVVVAVSHEDPEVKFNWYVDGVEVHNAKTKPREEQYNSTYRVVSVLTVLHQDWLNGKEYKCKVSNKALPAPIEKTISKAKGQPREPQVYTLPPSREEMTKNQVSLTCLVKGFYPSDIAVEWESNGQPENNYKTTPPVLDSDGSFFLYSRLTVDKSRWQQGNVFSCSVMHEALHNHYTQKSLSLSPGK VL: EIVLTQSPATLSLSPGERATLSCRASQSVSSYLAWYQQKPGQAPRLLIYDASNRATGIPARFSGSGSGTDFTLTISSLEPEDFAVYYCQQRSNWPITFGQGTRLEIK | ~0.2 | ~0.1 | 98 | 4 | no binding (tested: 0.0015-10 µg/mL)
